According to paper PMC5830916:

Columns and labels:
14-3-3 ε = 14-3-3 ε (UniProt P62258); assay: GFP-Trap co-IP, Myc immunoblot; conditions: reference: wild type
14-3-3 ζ = 14-3-3 ζ (UniProt P63104); assay: GFP-Trap co-IP, Myc immunoblot; conditions: reference: wild type

Substance	binding against the reference (14-3-3 ε; sites S395)	binding against the reference (14-3-3 ζ; sites S395)	binding against the reference (14-3-3 ε; sites S411)	binding against the reference (14-3-3 ζ; sites S411)
E2F8 (from UniProt Q58FA4) S395A	lost	lost	–	–
E2F7 (from UniProt Q6S7F2) S411A	–	–	lost	lost
